For four molecules, IC50 results are on record in PMC2690590 (2009).

The target of the test is DR1: DRA*0101(1–191)/DRB1*0101(1–198) (human).

B1: C-terminal fragment of the invariant chain (positions 118–208), devoid of CLIP (domain or fragment)
chain: LPMGALPQGPMQNATKYGNMTEDHVMHLLQNADPLKVYPPLKGSFPENLRHLKNTMETIDWKVFESWMHHWLLFEMSRHSLEQKPTDAPPK
Turning to B1, half-maximal inhibition (IC50) required 1700 nM.

B2: influenza hemagglutinin peptide HA306–318 (peptide)
peptide: PKYVKQNTLKLAT
With B2, the IC50 (usually the concentration at which inhibition is half-maximal) came out at 34 nM.

B3: recombinant extracellular part of human invariant chain (positions 73–208) (domain or fragment)
chain: QQQGRLDKLTVTSQNLQLENLRMKLPKPPKPVSKMRMATPLLMQALPMGALPQGPMQNATKYGNMTEDHVMHLLQNADPLKVYPPLKGSFPENLRHLKNTMETIDWKVFESWMHHWLLFEMSRHSLEQKPTDAPPK
The molecule B3 yielded an IC50 of 40 nM.

B4: CLIP peptide fragment of the invariant chain (positions 97–120) (peptide)
peptide: LPKPPKPVSKMRMATPLLMQALPM
As for B4, the IC50 stood at 40 nM.
